The values that follow come from publication PMC12948223, “HSP70 Interactome‐Mediated Proteolysis Targeting Chimera (HSP70‐PROTAC) for Ferroptosis‐Driven Cancer Treatment” (Advanced Science, 2025).

Test [1] concerns the target T1, heat shock cognate protein 70 (Hsc70), recombinant (human, UniProt P11142 1-646).
T1 construct: Hsc70 (HSPA8), human, bought recombinant protein; see the vendor's data sheet for HY-P73915A; also called HSPA8; heat shock cognate 70 protein; source: bought: MedChemExpress, #HY-P73915A (recombinant protein)
As to the kind of experiment: SPR; Biacore 8K; Hsc70 immobilised on a CM5 chip; GDAz-3 at 1 uM preincubated with GPX4 (ternary-complex measurement); PBS pH 7.4, 30 uL/min, 25 °C, 120 s association and 120 s dissociation. The following applies: both partners purified. On the technique in general: Surface plasmon resonance follows binding to a sensor surface in real time, without labels.

Test [2] has as its target T1, heat shock cognate protein 70 (Hsc70), …. As to the kind of experiment: SPR; Biacore 8K; human Hsc70 immobilised on a CM5 chip; GPX4 without compound (binary complex); PBS pH 7.4 running buffer, 30 uL/min, 25 °C, 120 s association and 120 s dissociation. As to conditions: both partners purified.

T1 sequence (P11142 whole entry): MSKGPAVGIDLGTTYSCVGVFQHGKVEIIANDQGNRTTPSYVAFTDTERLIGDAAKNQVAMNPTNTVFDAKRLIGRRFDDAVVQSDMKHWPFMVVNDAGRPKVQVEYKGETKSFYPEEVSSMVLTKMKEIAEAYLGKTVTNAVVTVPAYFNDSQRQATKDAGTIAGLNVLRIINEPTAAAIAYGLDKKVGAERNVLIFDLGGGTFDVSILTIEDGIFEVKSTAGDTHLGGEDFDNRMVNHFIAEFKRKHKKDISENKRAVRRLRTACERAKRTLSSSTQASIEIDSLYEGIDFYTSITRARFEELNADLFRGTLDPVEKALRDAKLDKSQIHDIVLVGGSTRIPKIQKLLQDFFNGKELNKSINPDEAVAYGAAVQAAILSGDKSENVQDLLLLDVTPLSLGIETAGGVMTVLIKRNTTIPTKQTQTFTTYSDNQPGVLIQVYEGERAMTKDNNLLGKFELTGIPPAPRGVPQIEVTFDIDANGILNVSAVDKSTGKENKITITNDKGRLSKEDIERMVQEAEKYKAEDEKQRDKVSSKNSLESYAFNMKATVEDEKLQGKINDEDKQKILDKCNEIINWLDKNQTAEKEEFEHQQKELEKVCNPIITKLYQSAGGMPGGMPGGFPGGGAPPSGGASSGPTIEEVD

B1: glutathione peroxidase 4 (GPX4), recombinant (enzyme)
chain: MCASRDDWRCARSMHEFSAKDIDGHMVNLDKYRGFVCIVTNVASQUGKTEVNYTQLVDLHARYAECGLRILAFPCNQFGKQEPGSNEEIKEFAAGYNVKFDMFSKICVNGDDAHPLWKWMKIQPKGKGILGNAIKWNFTKFLIDKNGCVVKRYGPMEEPLVIEKDLPHYF
modifications: Limits are by convention: cytosolic isoform, starting at precursor Met28 (paper numbering + 27, so Sec46 = U73; matches the start of 6HKQ). The commercial protein's limits and tag are not stated. …
As for B1, the “KD with GDAz-3” value in test [1] was found to be 23.9 nM. In addition, in test [2], the dissociation constant Kd amounted to 100 nM.

Usually Kd stands for the equilibrium constant for the complex coming apart.
